The test system of experiment [1] is chick E12 dorsal root ganglion growth cones. Put plainly: Growth cone collapse assay in chick dorsal root ganglion explants. Type of experiment: cell-based. Conditions: soluble form at 100 nM; chick E12 DRG. As to the method: (§1) For all experiments involving cell culture, the following methods were employed. The culture of embryonic chick E10 and E12 dorsal root ganglion explants and dissociated neurons utilized methods described for E7 dorsal root ganglion cultures (Takahashi et al., (1998) Nature Neurosci. 1, 487-493; Takahashi et al., (1999) Cell 99, 59-69; Goshima et al., (1995) Nature 376, 509-514; Jin & Strittmatter, (1997) J. Neurosci. […]). NGF-differentiated PC12 cells were cultured as described (Strittmatter et al., (1994) J. Neurosci. 14, 2327-2338). Embryonic spinal cord explants (rat E10 or chick E5) were cultured for 7-14 days in the presence of PDGF-AA to induce differentiation of some cells into mature oligodendrocytes (Vartanian et al., (1999) Proc. Natl. Acad. Sci. USA 96, 731-735). The procedure for growth cone collapse assays is identical to that for analysis of Sema3A-induced growth cone collapse (Takahashi et al., (1998) Nature Neurosci. 1, 487-493; Takahashi et al., (1999) Cell 99, 59-69; Goshima et al., (1995) Nature 376, 509-514; Jin & Strittmatter, (1997) J. Neurosci. 17, 6256-6263). The method for analysis of total neurite outgrowth has also been described (Goshima et al., (1995) Nature 376, 509-514; Jin & Strittmatter, (1997) J. Neurosci. 17, 6256-6263; Strittmatter et al., (1994) J. Neurosci. 14, 2327-2338). In outgrowth assays, proteins and peptides were added one hour after plating to minimize any effect on the total number of adherent cells. To test the effect of substrate-bound GST or GST-Nogo, the protein solutions were dried on poly-L-lysine coated glass, washed and then coated with laminin. For E12 cultures, the neuronal identity of cells was verified by staining with anti-neurofilament antibodies (2H3, Develomental Studies Hybridoma Bank) and neurites were traced by observation of rhodamine-phalloidin staining of F-actin in processes.
The expression of recombinant Nogo in HEK293T cells allows a rigorous test of whether this protein has axon outgrowth inhibiting effects. Washed membrane fractions from vector- or hNogo-A-Myc-transfected HEK293T cells were added to chick E12 dorsal root ganglion explant cultures. Growth cone morphology was assessed after a thirty minute incubation at 37° C. by fixation and rhodamine-phalloidin staining.
Briefly, for growth cone collapse, DRG explants were plated on plastic chamber slides precoated with 100 μg ml^−1 poly-L-lysine and 10 μg ml^−1 laminin. Cultures were grown 14-16 h prior to treatment.

Experiment [2] has as its system chick dorsal root ganglion neurons. Put plainly: Neurite outgrowth assay in chick DRG neurons. Type of experiment: cell-based. The procedure: as §1
For neurite outgrowth assays, plastic chamber slides were coated with 100 μg ml^−1 poly-L-lysine, washed, and dried. 3 μl drops of PBS containing GST-Nogo-66 were spotted and dried. Slides were then rinsed and coated with 10 μg ml fs24^−1 laminin before addition of dissociated E12 chick DRGs. AP-fusion proteins were added at the time of cell plating. Cultures were grown for 5-7 h after which neurite outgrowth was assessed.

Experiment [3] concerns 3T3 fibroblasts. The experiment in a line: 3T3 fibroblast spreading. Type of experiment: cell-based, mouse. As to the method:
(a) is a schematic diagram which summarizes features of the Nogo proteins utilized in this study. (b) is a photograph of NIH-3T3 fibroblasts cultured on surfaces coated with Amino-Nogo, GST-Nogo-66 or no protein and stained for filamentous actin (scale bar, 40 μm). (c) is a photograph of chick E12 dorsal root ganglions cultured on surfaces coated with Amino-Nogo, GST-Nogo-66 or no protein (substrate-bound) or with 100 nM Nogo protein (soluble) (scale bar, 40 μm). (d) is a photograph of a gel and an immunoblot where purified Amino-Nogo-Myc-His protein was subjected to SDS-PAGE and stained with Commassie Brilliant Blue (CBB) or immunoblotted with anti-Myc antibodies (Myc) (molecular weight markers of 200, 116, 97, 65 & 45 kDa are at left). (e) is a graph displaying experimental data where the percentage of 3T3 fibroblasts with an area greater than 1200 μm^2 (spread) was measured from experiments as in (b) on Nogo-coated surfaces (black) or with soluble 100 nM Nogo preparations (blue) (AM, Amino-Nogo; AM+Myc, Amino-Nogo preincubated with anti-Myc antibody; AM+Myc+Mo, AM+Myc preincubated with anti-mouse IgG antibody; Myc+Mo, anti-Myc antibody plus anti-murine IgG antibody). (f) is a graph displaying experimental data where the percentage of spread COS-7 cells was determined after culture on Nogo-coated surfaces or with soluble 100 nM Nogo preparations. (g) is a graph displaying experimental data where the effects of purified preparations of GST-Nogo-66 or Amino-Nogo on growth cone morphology was assessed in E12 dorsal root ganglion cultures at the indicated concentrations after thirty minutes. […] (h) is a graph displaying experimental data where the neurite outgrowth per cell in […] dorsal root ganglion cultures was quantitated from experiments as in (c) on Nogo-coated surfaces or with soluble 100 nM Nogo preparations. (i) is a graph displaying experimental data where the effects of Nogo preparations on neurite outgrowth in cerebellar granule neurons was measured.
Assays of Nogo-A function have included growth cone collapse, neurite outgrowth, and fibroblast spreading with substrate-bound and soluble protein preparations (Caroni & Schwab, (1988) J. Cell Biol. 106, 1281-1288; GrandPré et al., (2000) Nature 403, 439-444; Chen et al., (2000) Nature 403, 434-439; Prinjha et al., (2000) Nature 403, 483-484). […] Since NI250 preparations and full length Nogo-A are non-permissive for 3T3 spreading, it was necessary to consider whether different domains of Nogo might subserve this in vitro activity. To facilitate a comparison of different Nogo-A domains, the acidic amino terminal 1040 amino acid fragment (Amino-Nogo) was expressed as a Myc-his tagged protein in HEK293T cells (FIG. 1d). The Nogo protein is present in cytosolic fractions. […]

Experiment [4] relates to COS-7 cells. The experiment in a line: COS-7 cell spreading. Type of experiment: cell-based. The procedure: (§2) (a) is a schematic diagram which summarizes features of the Nogo proteins utilized in this study. (b) is a photograph of NIH-3T3 fibroblasts cultured on surfaces coated with Amino-Nogo, GST-Nogo-66 or no protein and stained for filamentous actin (scale bar, 40 μm). (c) is a photograph of chick E12 dorsal root ganglions cultured on surfaces coated with Amino-Nogo, GST-Nogo-66 or no protein (substrate-bound) or with 100 nM Nogo protein (soluble) (scale bar, 40 μm). […] (e) is a graph displaying experimental data where the percentage of 3T3 fibroblasts with an area greater than 1200 μm^2 (spread) was measured from experiments as in (b) on Nogo-coated surfaces (black) or with soluble 100 nM Nogo preparations (blue) (AM, Amino-Nogo; AM+Myc, Amino-Nogo preincubated with anti-Myc antibody; AM+Myc+Mo, AM+Myc preincubated with anti-mouse IgG antibody; Myc+Mo, anti-Myc antibody plus anti-murine IgG antibody). (f) is a graph displaying experimental data where the percentage of spread COS-7 cells was determined after culture on Nogo-coated surfaces or with soluble 100 nM Nogo preparations. (g) is a graph displaying experimental data where the effects of purified preparations of GST-Nogo-66 or Amino-Nogo on growth cone morphology was assessed in E12 dorsal root ganglion cultures at the indicated concentrations after thirty minutes. […]

Experiment [5] deals with Mouse P4 cerebellar granule neurons. The experiment in a line: Cerebellar granule neuron axon outgrowth. Type of experiment: cell-based. The procedure:
as §2

[6] abbreviates: substrate-bound / coated surfaces.
Setting [7] is: dimerized with anti-Myc antibody.

B1: Amino-Nogo: acidic amino terminal 1040 amino acid fragment of Nogo-A expressed as a Myc-his tagged protein in HEK293T cells (protein, UniProt Q9NQC3 1-1040, looked up, fragment)
chain: MEDLDQSPLVSSSDSPPRPQPAFKYQFVREPEDEEEEEEEEEEDEDEDLEELEVLERKPAAGLSAAPVPTAPAAGAPLMDFGNDFVPPAPRGPLPAAPPVAPERQPSWDPSPVSSTVPAPSPLSAAAVSPSKLPEDDEPPARPPPPPPASVSPQAEPVWTPPAPAPAAPPSTPAAPKRRGSSGSVDETLFALPAASEPVIRSSAENMDLKEQPGNTISAGQEDFPSVLLETAASLPSLSPLSAASFKEHEYLGNLSTVLPTEGTLQENVSEASKEVSEKAKTLLIDRDLTEFSELEYSEMGSSFSVSPKAESAVIVANPREEIIVKNKDEEEKLVSNNILHNQQELPTALTKLVKEDEVVSSEKAKDSFNEKRVAVEAPMREEYADFKPFERVWEVKDSKEDSDMLAAGGKIESNLESKVDKKCFADSLEQTNHEKDSESSNDDTSFPSTPEGIKDRSGAYITCAPFNPAATESIATNIFPLLGDPTSENKTDEKKIEEKKAQIVTEKNTSTKTSNPFLVAAQDSETDYVTTDNLTKVTEEVVANMPEGLTPDLVQEACESELNEVTGTKIAYETKMDLVQTSEVMQESLYPAAQLCPSFEESEATPSPVLPDIVMEAPLNSAVPSAGASVIQPSSSPLEASSVNYESIKHEPENPPPYEEAMSVSLKKVSGIKEEIKEPENINAALQETEAPYISIACDLIKETKLSAEPAPDFSDYSEMAKVEQPVPDHSELVEDSSPDSEPVDLFSDDSIPDVPQKQDETVMLVKESLTETSFESMIEYENKEKLSALPPEGGKPYLESFKLSLDNTKDTLLPDEVSTLSKKEKIPLQMEELSTAVYSNDDLFISKEAQIRETETFSDSSPIEIIDEFPTLISSKTDSFSKLAREYTDLEVSHKSEIANAPDGAGSLPCTELPHDLSLKNIQPKVEEKISFSDDFSKNGSATSKVLLLPPDVSALATQAEIESIVKPKVLVKEAEKKLPSDTEKEDRSPSAIFSAELSKTSVVDLLYWRDIKKTGVVFGASLFLLLSLTVFSIVSVT
modifications: Myc-His tag
notes: acidic amino terminal 1040 amino acid fragment of Nogo-A expressed as a Myc-his tagged protein in HEK293T cells
With B1, the “growth cone morphology (in words)” value in experiment [1] was “does not significantly modulate”. Also, in experiment [2] (Amino-Nogo with anti-Myc antibody, further aggregated by anti-Mouse IgG antibody), the “dorsal root ganglion axon outgrowth (in words)” value was “significantly reduces”. Also, the “neurite/axon outgrowth (in words)” value in experiment [2] (soluble protein or peptide added to culture) is “does not significantly modulate”; in experiment [2] (setting [6]), “axonal outgrowth is reduced to low levels”. In addition, the “3T3 spreading (in words)” value in experiment [3] (setting [7]) was “inhibits”. Further, the “non-neuronal cell spreading (in words)” value in experiment [3] (soluble, 100 nM) was “does not significantly modulate”; in experiment [4] (soluble, 100 nM), “does not significantly modulate”. For the same molecule, the “3T3 fibroblast spreading (in words)” value in experiment [3] (setting [6]) is “fail to support 3T3 fibroblast spreading”. Also, the “COS-7 spreading (in words)” value in experiment [4] (setting [7]) is given as “inhibits”. Further, the figures for the “cerebellar axon outgrowth (in words)” value in experiment [5] (setting [7]) and in experiment [5] (further aggregated by anti-Mouse IgG antibody) were “tends to reduce cerebellar axon outgrowth” and “significantly reduces”, respectively.

Source of the values: patent US8394929B2, “Nogo receptor-mediated blockade of axonal growth” (Yale University, priority 2000, dated 2013).
